According to patent US11872270B2, “A*03 restricted peptides for use in immunotherapy against cancers and related methods” (Immatics Biotechnologies GmbH, priority 2018, dated 2024):

target: HLA-A*03:01 (Homo sapiens, UniProt P04439); assay: MHC binding assay (UV-ligand exchange, β2m ELISA); conditions: binding to HLA-A*03:01, UV-ligand exchange, β2m ELISA
Text: Candidate peptides for T cell based therapies according to the present invention were further tested for their MHC binding capacity (affinity). The individual peptide-MHC complexes were produced by UV-ligand exchange, where a UV-sensitive peptide is cleaved upon UV-irradiation and exchanged with the peptide of interest as analyzed. Only peptide candidates that can effectively bind and stabilize the peptide-receptive MHC molecules prevent dissociation of the MHC complexes. To determine the yield of the exchange reaction, an ELISA was performed based on the detection of the light chain (β2m) of stabilized MHC complexes. The assay was performed as generally described in Rodenko et al. (Rodenko et al., 2006) 96 well MAXISorp plates (NUNC) were coated over night with 2 ug/ml streptavidin in PBS at room temperature, washed 4× and blocked for 1 h at 37° C. in 2% BSA containing blocking buffer. Refolded HLA-A*02:01/MLA-001 monomers served as standards, covering the range of 15-500 ng/ml. Peptide-MHC monomers of the UV-exchange reaction were diluted 100-fold in blocking buffer. Samples were incubated for 1 h at 37° C., washed four times, incubated with 2 ug/ml HRP conjugated anti-β2m for 1 h at 37° C., washed again and detected with TMB solution that is stopped with […]. Absorption was measured at 450 nm. Candidate peptides that show a high exchange yield (preferably higher than 50%, most preferred higher than 75%) are generally preferred for a generation and production of antibodies or fragments thereof, and/or T cell receptors or fragments thereof, as they show sufficient avidity to the MHC molecules and prevent dissociation of the MHC complexes.

Row | Peptide exchange (MHC class I binding score, peptide exchange yield) | Substance
1 | +++ (>50 = +++) | 79 (AVAAVLLSR; listed as Homo sapiens) [compound 79]
2 | ++++ (>75% = ++++) | 80 (ALCGTQLFY; listed as Homo sapiens) [compound 80]
3 | ++++ (>75% = ++++) | 82 (CLANYTVNK; listed as Homo sapiens) [compound 82]
4 | ++++ (>75% = ++++) | 83 (KLADSVMAGK; listed as Homo sapiens) [compound 83]
5 | ++++ (>75% = ++++) | 84 (QLYSPPSPSYR; listed as Homo sapiens) [compound 84]
6 | + (>10% = +) | 85 (IMPTFDLTK; listed as Homo sapiens) [compound 85]
7 | +++ (>50 = +++) | 86 (RVSGSGGGGAGK; listed as Homo sapiens) [compound 86]
8 | ++++ (>75% = ++++) | 87 (RLASVGLDAK; listed as Homo sapiens) [compound 87]
9 | ++++ (>75% = ++++) | 88 (GTHVWVGLYK; listed as Homo sapiens) [compound 88]
10 | +++ (>50 = +++) | 89 (VIYVICRHK; listed as Homo sapiens) [compound 89]
11 | ++++ (>75% = ++++) | 90 (RTALLWGLKK; listed as Homo sapiens) [compound 90]
12 | + (>10% = +) | 91 (IMKRQVKCITK; listed as Homo sapiens) [compound 91]
13 | ++ (>20% = ++) | 92 (KRIPFRPLAK; listed as Homo sapiens) [compound 92]
14 | +++ (>50 = +++) | 93 (SVEGLSRRLK; listed as Homo sapiens) [compound 93]
15 | ++ (>20% = ++) | 94 (GMTLLCEALK; listed as Homo sapiens) [compound 94]
16 | ++ (>20% = ++) | 95 (FLGLAFHPK; listed as Homo sapiens) [compound 95]
17 | + (>10% = +) | 96 (RAVSVNPGK; listed as Homo sapiens) [compound 96]
18 | ++++ (>75% = ++++) | 97 (RVRALGSQY; listed as Homo sapiens) [compound 97]
19 | ++ (>20% = ++) | 98 (VSVAGSILAK; listed as Homo sapiens) [compound 98]
20 | ++++ (>75% = ++++) | 99 (RTYTCQVTY; listed as Homo sapiens) [compound 99]
21 | +++ (>50 = +++) | 100 (TTNARILAR; listed as Homo sapiens) [compound 100]

Row | Peptide exchange (MHC class I binding score, peptide exchange yield) | Substance
22 | +++ (>50 = +++) | 101 (HMDEFKRTQK; listed as Homo sapiens) [compound 101]
23 | ++++ (>75% = ++++) | 102 (RLLQHTPSAR; listed as Homo sapiens) [compound 102]
24 | ++++ (>75% = ++++) | 103 (SIYKKAVYR; listed as Homo sapiens) [compound 103]
25 | ++ (>20% = ++) | 104 (AVVQGLVEK; listed as Homo sapiens) [compound 104]
26 | ++ (>20% = ++) | 105 (QVLDLQSVK; listed as Homo sapiens) [compound 105]
27 | ++ (>20% = ++) | 106 (LLRSGLTLR; listed as Homo sapiens) [compound 106]
28 | +++ (>50 = +++) | 107 (ILNLNKMVK; listed as Homo sapiens) [compound 107]
29 | +++ (>50 = +++) | 109 (KLQNLPTLLY; listed as Homo sapiens) [compound 109]
30 | ++++ (>75% = ++++) | 110 (IIFIPATILLK; listed as Homo sapiens) [compound 110]
31 | ++++ (>75% = ++++) | 111 (ATSPPASVR; listed as Homo sapiens) [compound 111]
32 | +++ (>50 = +++) | 112 (ASLAAAVLAK; listed as Homo sapiens) [compound 112]
33 | + (>10% = +) | 113 (VSIRNTLLY; listed as Homo sapiens) [compound 113]
34 | ++++ (>75% = ++++) | 114 (SLLTVSGAWAK; listed as Homo sapiens) [compound 114]
35 | +++ (>50 = +++) | 115 (AILHPFRAK; listed as Homo sapiens) [compound 115]
36 | ++ (>20% = ++) | 117 (TVFVELWLK; listed as Homo sapiens) [compound 117]
37 | + (>10% = +) | 118 (SLRGSFPILY; listed as Homo sapiens) [compound 118]
38 | ++++ (>75% = ++++) | 119 (RMGFRTLSK; listed as Homo sapiens) [compound 119]
39 | ++ (>20% = ++) | 120 (TRMQKAGFLYY; listed as Homo sapiens) [compound 120]
40 | ++++ (>75% = ++++) | 122 (LIGPLLICK; listed as Homo sapiens) [compound 122]
41 | +++ (>50 = +++) | 124 (VVYDTMIEK; listed as Homo sapiens) [compound 124]
42 | ++++ (>75% = ++++) | 125 (VVYDTMIEKF; listed as Homo sapiens) [compound 125]

Row | Peptide exchange (MHC class I binding score, peptide exchange yield) | Substance
43 | ++ (>20% = ++) | 127 (GLAAGALLLY; listed as Homo sapiens) [compound 127]
44 | ++++ (>75% = ++++) | 128 (KIKKPLSYR; listed as Homo sapiens) [compound 128]
45 | +++ (>50 = +++) | 129 (ALARVSSVKL; listed as Homo sapiens) [compound 129]
46 | ++++ (>75% = ++++) | 131 (RVDSKQRYY; listed as Homo sapiens) [compound 131]
47 | +++ (>50 = +++) | 132 (ASSFRPLLSK; listed as Homo sapiens) [compound 132]
48 | +++ (>50 = +++) | 134 (SLLKPSGDYFK; listed as Homo sapiens) [compound 134]
49 | ++++ (>75% = ++++) | 136 (ALSRMSQQY; listed as Homo sapiens) [compound 136]
50 | ++++ (>75% = ++++) | 137 (TVYVAMCHKF; listed as Homo sapiens) [compound 137]
51 | +++ (>50 = +++) | 138 (VSLSKMLKK; listed as Homo sapiens) [compound 138]
52 | ++++ (>75% = ++++) | 141 (RLRDYISSLK; listed as Homo sapiens) [compound 141]
53 | + (>10% = +) | 142 (SPRVYWLGLNDR; listed as Homo sapiens) [compound 142]
54 | ++++ (>75% = ++++) | 143 (KTLGKIAEK; listed as Homo sapiens) [compound 143]
55 | ++ (>20% = ++) | 144 (PLAMLAATCNK; listed as Homo sapiens) [compound 144]
56 | ++++ (>75% = ++++) | 145 (SLFEGIYTIK; listed as Homo sapiens) [compound 145]
57 | ++++ (>75% = ++++) | 146 (TLLSYELAFK; listed as Homo sapiens) [compound 146]
58 | +++ (>50 = +++) | 147 (KLFMPRPK; listed as Homo sapiens) [compound 147]
59 | +++ (>50 = +++) | 148 (RIGNKGIYK; listed as Homo sapiens) [compound 148]
60 | +++ (>50 = +++) | 149 (TVFLSKYLKK; listed as Homo sapiens) [compound 149]
61 | ++ (>20% = ++) | 150 (LLLAAVTVK; listed as Homo sapiens) [compound 150]
62 | +++ (>50 = +++) | 151 (KVASFTVIGY; listed as Homo sapiens) [compound 151]
63 | + (>10% = +) | 152 (KIICGVHYLY; listed as Homo sapiens) [compound 152]
